Results reported in patent US8697369B2, “Method for screening a test substance for activating a receptor associated with FGF 21 activity” (National Institute of Advanced Industrial Science and …, priority 2007, dated 2014).

System: undifferentiated 3T3-L1 fibroblasts
Experiment: GLUT1 mRNA expression in undifferentiated 3T3-L1 fibroblasts
Type: cell-based
Conditions: various concentrations, 6 hours
Description: It has been reported that FGF21 allows adipocytes to increasingly express glucose transporter 1 (GLUT1). In the present example, as cultured adipocytes, there were used 3T3-L1 cells that are fibroblasts having the ability to differentiate into adipocytes by controlling culture conditions. The cells were cultured in a culture solution of a Dulbecco's modified Eagle medium (DMEM) containing 10% fetal bovine serum (FBS), so as to prepare cells maintaining an undifferentiated property as fibroblasts. The prepared cells were cultured in a test system, and they were allowed to grow to a confluent state. The cells were then left for 2 days. Thereafter, the culture solution was exchanged with DMEM as a culture solution used for differentiation induction, which comprised 10% FBS, 0.25 μM dexamethasone, 0.5 mM methyl isobutyl xanthine, and 5 μg/ml insulin. The cells were cultured for 2 days. […] The term “cells having the properties of adipocytes” is used herein to mean cells, which conduct intracellular metabolism specific to adipocytes and have cytoplasm in which large quantities of fat droplets are accumulated.
FGF21 were added in various types of concentrations to such different types of culture solutions, and the cells were further culture for 6 hours. Thereafter, RNA was extracted, and the copy number of GLUT1 was counted.

B1: FGF21: fibroblast growth factor 21; mouse-derived protein used in Examples 1-7 and 10-13 (protein)
chain: AYPIPDSSPLLQFGGQVRQRYLYTDDDQDTEAHLEIREDGTVVGAAHRSPESLLELKALKPGVIQILGVKASRFLCQQPDGALYGSPHFDPEACSFRELLLEDGYNVYQSEAHGLPLRLPQKDSPNQDATSWGPVRFLPMPGLLHEPQDQAGFLPPEPPDVGSSDPLSMVEPLQGRSPSYAS
expression level of GLUT1 mRNA: hardly changed
